Data reported in patent US20240376189A1 (University of Pennsylvania, published 2024).

Assays:
[1] = target: T1, cynomolgus antigen (cynomolgus); experiment: affinity-ranking ELISA: cynomolgus antigen coated on the plate, normalized scFv periplasmic extract in 3-fold dilutions from 100 nM, anti-c-myc-HRP, OD450
T1 construct: also called cyno antigen; cynomolgus monkey C5a
Method: The affinity ranking ELISA was carried out as following: scFv concentrations in PEs were measured by Quantification ELISA using purified scFv sample as a standard. Briefly, anti-His-antibody (Genscript-A00186) were coated on the plates in coating buffer PBS at pH7.4 overnight at 4° C. The next day, plates were blocked with casein in PBS at pH7.4 for 1 hour at 25° C. ScFv containing PEs were diluted 3 fold serial dilutions and then added to the plates. A purified scFv standard sample with known concentration was used as a standard. After incubation at 25° C. for 1 hour and washing 3 times with PBS-T, anti-c-myc-HRP (Bethyl-A190-104P) was added to the wells followed by incubation for 1 hour at 25° C. HRP activity was detected with TMB substrate and the reaction was quenched with 2M HCl. Plates were read at 450 nm.
The next day, plates were blocked with casein in PBS for 1 hour at 25° C. Normalized scFv containing PEs were diluted using 3 fold serial dilutions starting at 100 nM, added to the plates and incubated at 25° C. for 1 hour. After washing, anti-c-myc-HRP was added to the wells followed by incubation for 1 hour at 25° C. HRP activity was detected with TMB substrate and the reaction was quenched with 2M HCl. Plates were read at 450 nm. Data were fitted into one-site binding equation using GraphPad Prism 5 software.

[2] = target: T2, human C5a (human, UniProt P01031 678-751, biotinylated in the U937/C5aR ligand blocking assay (site not stated)); experiment: SPR, scFv captured via anti-c-myc/anti-His, 5 nM human antigen as analyte, 1:1 fit
T2 construct: also called human antigen; huC5a
T2 sequence: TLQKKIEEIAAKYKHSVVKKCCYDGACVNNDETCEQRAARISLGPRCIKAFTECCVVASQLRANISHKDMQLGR

[3] = target: T1, cynomolgus antigen; experiment: SPR, scFv captured via anti-c-myc/anti-His, 60 nM cynomolgus antigen as analyte, 1:1 fit
Method: The activator was prepared by mixing 400 mM EDC (1-ethyl-3-(3-dimethylaminopropyl) carbodiimide) and 100 mM NHS (N-hydroxysuccinimide) (GE) immediately prior to injection. The CMS sensor chip was activated for 600 s with the mixture at a flow rate of 10 μL/min. Mixture of anti-c-myc and anti his antibodies in 10 mM NaAc (pH 4.5) was then injected to Fc1 and Fc2 of channel 1 to channel 8 for 600 seconds at a flow rate of 10 μL/min. The chip was deactivated by 1 M ethanolamine-HCl (GE) at a flow rate of 10 μL/min for 420 seconds.
The anti-C5a scFv was diluted to 0.5 μg/ml, the other samples were diluted to 2 μg/ml in running buffer 1×HBS-EP+ (0.01 M HEPES, 0.15 M NaCl, 0.003 M EDTA, 0.05% surfactant P20). […] Diluted TES buffer was injected into channel Fc1 at a flow rate of 10 μL/min for 40 s, diluted scFv was injected into channel Fc2 at a flow rate of 10 μL/min for 40 s. […] 10 mM glycine pH 1.5 as regeneration buffer was injected following every dissociation phase. The chip was regenerated with 10 mM glycine pH 1.5.
The sensorgrams for reference channel Fc1 and buffer channel were subtracted from the test sensorgrams. Data were fitted by 1:1 kinetic binding model. Molecular weight of 8.4 kDa was used to calculate the molar concentration of the cyno antigen.

B1: 13B7 (scFv, V domains shown)
VH: QVQLVQSGAEVKKPGSSVKVSCKASGYTFTDHIIHWMRQAPGQGLEWMGYIYPREGWTNYNENFKGRVTITADKSTSTAYMELSSLRSEDTAVYYCARERNLEYFDYWGQGTTVTVSS
VL: DIVLTQSPASLAVSPGQRATITCKASQSVDYEGFNYMNWYQQKPGQPPKLLIYAASNLDSGVPARFSGSGSGTDFTLTINPVEAEDTANYYCQQSVEDPHTFGGGTKVEIK
notes: Combination mutant scFv
EC50 (read off the curve) [1]: ~6 nM | koff [2]: < 1e-05 s⁻¹ | koff [3]: 0.000252 s⁻¹

B2: 10F5 (scFv, V domains shown)
VH: QVQLVQSGAEVKKPGSSVKVSCKASGYTFTDHIIHWMRQAPGQGLEWMGYIYPREGWTNYNENFKGRVTITADKSTSTAYMELSSLRSEDTAVYYCARERNLEYFDYWGQGTTVTVSS
VL: DIVLTQSPASLAVSPGQRATITCKASQSVDYEGDNYMNWYQQKPGQPPKLLIYATSNLDSGVPARFSGSGSGTDFTLTINPVEAEDTANYYCQQSLEDPHTFGGGTKVEIK
notes: Combination mutant scFv
koff [2]: < 1e-05 s⁻¹ | koff [3]: 0.00202 s⁻¹

B3: 5G11 (scFv, V domains shown)
VH: QVQLVQSGAEVKKPGSSVKVSCKASGYTFTDHIIHWMRQAPGQGLEWMGYIYPREGWTNYNENFKGRVTITADKSTSTAYMELSSLRSEDTAVYYCARERNLEYFDYWGQGTTVTVSS
VL: DIVLTQSPASLAVSPGQRATITCKASQSVDYEGFNYMNWYQQKPGQPPKLLIYAASNLDSGVPARFSGSGSGTDFTLTINPVEAEDTANYYCQQSLEDPHTFGGGTKVEIK
notes: Combination mutant scFv
koff [2]: < 1e-05 s⁻¹ | koff [3]: 0.000279 s⁻¹

B4: 16C2 (scFv, V domains shown)
VH: QVQLVQSGAEVKKPGSSVKVSCKASGYTFTDHIIHWMRQAPGQGLEWMGYIYPREGWTNYNENFKGRVTITADKSTSTAYMELSSLRSEDTAVYYCARERNLEYFDYWGQGTTVTVSS
VL: DIVLTQSPASLAVSPGQRATITCKASQSVDYEGFNYMNWYQQKPGQPPKLLIYATSNLDSGVPARFSGSGSGTDFTLTINPVEAEDTANYYCQQSVEDPHTFGGGTKVEIK
notes: Combination mutant scFv
koff [2]: 2.58e-05 s⁻¹ | koff [3]: 0.00176 s⁻¹

B5: 17D2 (scFv, V domains shown)
VH: QVQLVQSGAEVKKPGSSVKVSCKASGYTFTDHIIHWMRQAPGQGLEWMGYIYPREGWTNYNENFKGRVTITADKSTSTAYMELSSLRSEDTAVYYCARERNLEYFDYWGQGTTVTVSS
VL: DIVLTQSPASLAVSPGQRATITCKASQSVDFEGDNYMNWYQQKPGQPPKLLIYATSNLDSGVPARFSGSGSGTDFTLTINPVEAEDTANYYCQQSVEDPHTFGGGTKVEIK
notes: Combination mutant scFv
koff [2]: 1.89e-05 s⁻¹ | koff [3]: 0.0019 s⁻¹

B6: 8C1 (scFv, V domains shown)
VH: QVQLVQSGAEVKKPGSSVKVSCKASGYTFTDHIIHWMRQAPGQGLEWMGYIYPREGWTNYNENFKGRVTITADKSTSTAYMELSSLRSEDTAVYYCARERNLEYFDYWGQGTTVTVSS
VL: DIVLTQSPASLAVSPGQRATITCKASQSVDFEGFNYMNWYQQKPGQPPKLLIYAASNLDSGVPARFSGSGSGTDFTLTINPVEAEDTANYYCQQSLEDPHTFGGGTKVEIK
notes: Combination mutant scFv
koff [2]: < 1e-05 s⁻¹ | koff [3]: 0.000481 s⁻¹

B7: 18F5 (scFv, V domains shown)
VH: QVQLVQSGAEVKKPGSSVKVSCKASGYTFTDHIIHWMRQAPGQGLEWMGYIYPREGFTNYNENFKGRVTITADKSTSTAYMELSSLRSEDTAVYYCARERNLEYFDYWGQGTTVTVSS
VL: DIVLTQSPASLAVSPGQRATITCKASQSVDFEGFNYMNWYQQKPGQPPKLLIYAASNLDSGVPARFSGSGSGTDFTLTINPVEAEDTANYYCQQSVEDPHTFGGGTKVEIK
notes: Combination mutant scFv
EC50 (read off the curve) [1]: ~8 nM | koff [2]: 3.03e-05 s⁻¹ | koff [3]: 0.000319 s⁻¹

B8: 16D10 scFv (scFv, V domains shown)
VH: QVQLVQSGAEVKKPGSSVKVSCKASGYTFTDHIIHWMRQAPGQGLEWMGYIYPREGWTNYNENFKGRVTITADKSTSTAYMELSSLRSEDTAVYYCARERNLEYFDYWGQGTTVTVSS
VL: DIVLTQSPASLAVSPGQRATITCKASQSVDYEGFNYMNWYQQKPGQPPKLLIYAASNLDSGVPARFSGSGSGTDFTLTINPVEAEDTANYYCQQSNEDPYTFGGGTKVEIK
EC50 (read off the curve) [1]: ~20 nM | koff [2]: 2.34e-05 s⁻¹ | koff [3]: 0.000465 s⁻¹

B9: 2H8E10 (scFv, V domains shown)
VH: QVQLVQSGAEVKKPGSSVKVSCKASGYTFTDHIIHWMRQAPGQGLEWMGYIYPREGWTNYNENFKGRVTITADKSTSTAYMELSSLRSEDTAVYYCARERNLEYFDYWGQGTTVTVSS
VL: DIVLTQSPASLAVSPGQRATITCKASQSVDYEGDNYMNWYQQKPGQPPKLLIYAASNLDSGVPARFSGSGSGTDFTLTINPVEAEDTANYYCQQSNEDPHTFGGGTKVEIK
notes: Combination mutant scFv
koff [2]: 1.82e-05 s⁻¹ | koff [3]: 0.00258 s⁻¹

B10: 16F10 (scFv, V domains shown)
VH: QVQLVQSGAEVKKPGSSVKVSCKASGYTFTDHIIHWMRQAPGQGLEWMGYIYPREGWTNYNENFKGRVTITADKSTSTAYMELSSLRSEDTAVYYCARERNLEYFDYWGQGTTVTVSS
VL: DIVLTQSPASLAVSPGQRATITCKASQSVDFEGFNYMNWYQQKPGQPPKLLIYAASNLDSGVPARFSGSGSGTDFTLTINPVEAEDTANYYCQQSVEDPHTFGGGTKVEIK
notes: Combination mutant scFv
EC50 (read off the curve) [1]: ~4 nM | koff [2]: 1.14e-05 s⁻¹ | koff [3]: 0.000155 s⁻¹

B11: 18D3 (scFv, V domains shown)
VH: QVQLVQSGAEVKKPGSSVKVSCKASGYTFTDHIIHWMRQAPGQGLEWMGYIYPREGWTNYNENFKGRVTITADKSTSTAYMELSSLRSEDTAVYYCARERNLEYFDYWGQGTTVTVSS
VL: DIVLTQSPASLAVSPGQRATITCKASQSVDYEGDNYMNWYQQKPGQPPKLLIYATSNLDSGVPARFSGSGSGTDFTLTINPVEAEDTANYYCQQSVEDPHTFGGGTKVEIK
notes: Combination mutant scFv
koff [2]: 2.98e-05 s⁻¹ | koff [3]: 0.00418 s⁻¹

B12: 8H8 (scFv, V domains shown)
VH: QVQLVQSGAEVKKPGSSVKVSCKASGYTFTDHIIHWMRQAPGQGLEWMGYIYPREGWTNYNENFKGRVTITADKSTSTAYMELSSLRSEDTAVYYCARERNLEYFDYWGQGTTVTVSS
VL: DIVLTQSPASLAVSPGQRATITCKASQSVDYEGFNYMNWYQQKPGQPPKLLIYATSNLDSGVPARFSGSGSGTDFTLTINPVEAEDTANYYCQQSLEDPHTFGGGTKVEIK
notes: Combination mutant scFv
koff [2]: 2.69e-05 s⁻¹ | koff [3]: 0.000927 s⁻¹

B13: 13B9 (scFv, V domains shown)
VH: QVQLVQSGAEVKKPGSSVKVSCKASGYTFTDHIIHWMRQAPGQGLEWMGYIYPREGWTNYNENFKGRVTITADKSTSTAYMELSSLRSEDTAVYYCARERNLEYFDYWGQGTTVTVSS
VL: DIVLTQSPASLAVSPGQRATITCKASQSVDFEGFNYMNWYQQKPGQPPKLLIYAASNLDSGVPARFSGSGSGTDFTLTINPVEAEDTANYYCQQSNEDPHTFGGGTKVEIK
notes: Combination mutant scFv
EC50 (read off the curve) [1]: ~10 nM | koff [2]: 2.2e-05 s⁻¹ | koff [3]: 0.000327 s⁻¹

B14: 11A11 (scFv, V domains shown)
VH: QVQLVQSGAEVKKPGSSVKVSCKASGYTFTDHIIHWMRQAPGQGLEWMGYIYPREGWTNYNENFKGRVTITADKSTSTAYMELSSLRSEDTAVYYCARERNLEYFDYWGQGTTVTVSS
VL: DIVLTQSPASLAVSPGQRATITCKASQSVDFEGFNYMNWYQQKPGQPPKLLIYATSNLDSGVPARFSGSGSGTDFTLTINPVEAEDTANYYCQQSVEDPHTFGGGTKVEIK
notes: Combination mutant scFv
koff [2]: < 1e-05 s⁻¹ | koff [3]: 0.000786 s⁻¹

B15: 19D2 (scFv, V domains shown)
VH: QVQLVQSGAEVKKPGSSVKVSCKASGYTFTDHIIHWMRQAPGQGLEWMGYIYPREGWTNYNENFKGRVTITADKSTSTAYMELSSLRSEDTAVYYCARERNLEYFDYWGQGTTVTVSS
VL: DIVLTQSPASLAVSPGQRATITCKASQSVDFEGDNYMNWYQQKPGQPPKLLIYATSNLDSGVPARFSGSGSGTDFTLTINPVEAEDTANYYCQQSLEDPHTFGGGTKVEIK
notes: Combination mutant scFv
koff [2]: < 1e-05 s⁻¹ | koff [3]: 0.00102 s⁻¹
